Data reported in the supplement of paper PMC9112550, “Optimization of the antimicrobial peptide Bac7 by deep mutational scanning” (BMC Biology, 2022).

Test system: Escherichia coli TOP10
Assay: shrunken log2 fold change of peptide-encoding DNA abundance (4.5 h post-induction vs induction); higher = less antimicrobial activity (less host growth inhibition)
Conditions: time post-induction: 4.5 h; library: site-saturation at positions 5, 18, 19, 20
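Further: peptides expressed intracellularly from a pBAD plasmid library in pooled LB shake-flask culture, induced with 0.3% L-arabinose, DNA abundance read by NGS, three biological replicates, DESeq2 with apeglm shrinkage.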

| Sequence | shrunken log2 fold change |
| --- | --- |
| RRIRMRPPRLPRPRPRPFAPPRP | 0.633 |
| RRIRGRPPRLPRPRPRPWADPRP | 0.142 |
| RRIRQRPPRLPRPRPRPDLCPRP | -0.00719 |
| RRIRMRPPRLPRPRPRPCDDPRP | 0.553 |
| RRIRHRPPRLPRPRPRPNMMPRP | -0.263 |
| RRIRRRPPRLPRPRPRPETKPRP | 0.511 |
| RRIRLRPPRLPRPRPRPHGNPRP | -0.186 |
| RRIRARPPRLPRPRPRPRHGPRP | 0.343 |
| RRIRERPPRLPRPRPRPLTPPRP | -0.123 |
| RRIRERPPRLPRPRPRPDHAPRP | -0.318 |
| RRIRMRPPRLPRPRPRPDAFPRP | 1.47 |
| RRIRNRPPRLPRPRPRPWLCPRP | 0.00252 |
| RRIRPRPPRLPRPRPRPREGPRP | 0.891 |
| RRIRARPPRLPRPRPRPRRFPRP | 0.603 |
| RRIRKRPPRLPRPRPRPMYNPRP | -0.315 |
| RRIRDRPPRLPRPRPRPCGHPRP | 0.232 |
| RRIRGRPPRLPRPRPRPGGGPRP | 1.33 |
| RRIRIRPPRLPRPRPRPWVEPRP | -0.211 |
| RRIRARPPRLPRPRPRPTQAPRP | 1.06 |
| RRIRDRPPRLPRPRPRPLCHPRP | 0.0833 |
| RRIRCRPPRLPRPRPRPYVTPRP | -0.893 |
| RRIRHRPPRLPRPRPRPYGHPRP | -0.551 |
| RRIRRRPPRLPRPRPRPWAMPRP | -0.136 |

| Sequence | shrunken log2 fold change |
| --- | --- |
| RRIRKRPPRLPRPRPRPMCIPRP | -0.00174 |
| RRIRHRPPRLPRPRPRPYKAPRP | -0.484 |
| RRIRVRPPRLPRPRPRPMSLPRP | 0.0447 |
| RRIRFRPPRLPRPRPRPFRPPRP | -0.466 |
| RRIRWRPPRLPRPRPRPTDAPRP | -0.0515 |
| RRIRSRPPRLPRPRPRPREFPRP | 0.322 |
| RRIRTRPPRLPRPRPRPYQMPRP | 0.0528 |
| RRIRARPPRLPRPRPRPDPQPRP | 0.698 |
| RRIRARPPRLPRPRPRPEGSPRP | 0.805 |
| RRIRMRPPRLPRPRPRPALRPRP | 0.851 |
| RRIRWRPPRLPRPRPRPDCDPRP | 0.799 |
| RRIRIRPPRLPRPRPRPECKPRP | -0.259 |
| RRIRGRPPRLPRPRPRPYTMPRP | -0.342 |
| RRIRERPPRLPRPRPRPKTHPRP | -0.392 |
| RRIRFRPPRLPRPRPRPCQDPRP | -0.148 |
| RRIRLRPPRLPRPRPRPSWFPRP | -0.237 |
| RRIRYRPPRLPRPRPRPWWWPRP | 0.0798 |
| RRIRTRPPRLPRPRPRPMGTPRP | -0.0546 |
| RRIRDRPPRLPRPRPRPAKPPRP | 0.419 |
| RRIRMRPPRLPRPRPRPDNYPRP | -0.0552 |
| RRIRLRPPRLPRPRPRPDQKPRP | 0.0416 |
| RRIRRRPPRLPRPRPRPDSKPRP | -0.0649 |
| RRIRARPPRLPRPRPRPWCMPRP | -0.223 |

| Sequence | shrunken log2 fold change |
| --- | --- |
| RRIRYRPPRLPRPRPRPQITPRP | -0.918 |
| RRIRTRPPRLPRPRPRPTTKPRP | -0.0673 |
| RRIRIRPPRLPRPRPRPFVMPRP | -0.275 |
| RRIRNRPPRLPRPRPRPDLHPRP | 1.8 |
| RRIRSRPPRLPRPRPRPRTGPRP | 0.185 |
| RRIRGRPPRLPRPRPRPVHNPRP | 0.259 |
| RRIRFRPPRLPRPRPRPLPGPRP | 0.403 |
| RRIRKRPPRLPRPRPRPWPNPRP | 0.0221 |
| RRIRMRPPRLPRPRPRPRTTPRP | 0.714 |
| RRIRMRPPRLPRPRPRPPCVPRP | 0.389 |
| RRIRLRPPRLPRPRPRPIKWPRP | -0.412 |
| RRIRQRPPRLPRPRPRPYYCPRP | -0.332 |
| RRIRYRPPRLPRPRPRPAPKPRP | 0.207 |
| RRIRCRPPRLPRPRPRPMIPPRP | -0.231 |
| RRIRFRPPRLPRPRPRPLQDPRP | 0.118 |
| RRIRIRPPRLPRPRPRPWKHPRP | -0.0111 |
| RRIRVRPPRLPRPRPRPLTVPRP | 0.0473 |
| RRIRVRPPRLPRPRPRPNRNPRP | -0.238 |
| RRIRLRPPRLPRPRPRPRPMPRP | 0.725 |
| RRIRFRPPRLPRPRPRPCMRPRP | 0.0466 |
| RRIRCRPPRLPRPRPRPCHEPRP | -0.0566 |
| RRIRNRPPRLPRPRPRPAQNPRP | 0.861 |
| RRIRPRPPRLPRPRPRPTLEPRP | 0.393 |

| Sequence | shrunken log2 fold change |
| --- | --- |
| RRIRARPPRLPRPRPRPCVCPRP | 0.301 |
| RRIRRRPPRLPRPRPRPEPEPRP | 0.837 |
| RRIRCRPPRLPRPRPRPRWFPRP | 0.0519 |
| RRIRNRPPRLPRPRPRPPAIPRP | 0.276 |
| RRIRCRPPRLPRPRPRPYPVPRP | -0.441 |
| RRIRGRPPRLPRPRPRPAIDPRP | 0.568 |
| RRIRMRPPRLPRPRPRPIHPPRP | -0.0207 |
| RRIRRRPPRLPRPRPRPTWQPRP | 0.459 |
| RRIRKRPPRLPRPRPRPVNNPRP | -0.241 |
| RRIRLRPPRLPRPRPRPFFIPRP | -0.396 |
| RRIRFRPPRLPRPRPRPIWIPRP | -0.234 |
| RRIRERPPRLPRPRPRPKFCPRP | -0.267 |
| RRIRKRPPRLPRPRPRPRVVPRP | 0.143 |
| RRIRCRPPRLPRPRPRPEETPRP | 0.143 |
| RRIRCRPPRLPRPRPRPSFAPRP | -0.0835 |
| RRIRPRPPRLPRPRPRPWVDPRP | 0.064 |
| RRIRARPPRLPRPRPRPEMIPRP | 0.0273 |
| RRIRVRPPRLPRPRPRPNDRPRP | -0.0172 |
| RRIRRRPPRLPRPRPRPNYPPRP | 0.0594 |
| RRIRIRPPRLPRPRPRPSQEPRP | -0.317 |
| RRIRERPPRLPRPRPRPHTAPRP | -0.14 |
| RRIRCRPPRLPRPRPRPQGFPRP | -0.0235 |
